{
  "source": "patent US20260022179A1",
  "about": "(CHINA MEDICAL UNIVERSITY, published 2026)",
  "key": {"[1]": {"molecular_target": "T1, recombinant human EphA10 extracellular domain protein (Glu34-Ala565), transcript variant 3, fused with … (human, UniProt Q5JZY3 34-565)", "T1 construct": "range 34-565; Commercial protein used for panning and the screening ELISA; also called EPHA10-369H (Creative Biomart); not shown: C-terminal DDK/His tag", "T1 sequence (looked up)": "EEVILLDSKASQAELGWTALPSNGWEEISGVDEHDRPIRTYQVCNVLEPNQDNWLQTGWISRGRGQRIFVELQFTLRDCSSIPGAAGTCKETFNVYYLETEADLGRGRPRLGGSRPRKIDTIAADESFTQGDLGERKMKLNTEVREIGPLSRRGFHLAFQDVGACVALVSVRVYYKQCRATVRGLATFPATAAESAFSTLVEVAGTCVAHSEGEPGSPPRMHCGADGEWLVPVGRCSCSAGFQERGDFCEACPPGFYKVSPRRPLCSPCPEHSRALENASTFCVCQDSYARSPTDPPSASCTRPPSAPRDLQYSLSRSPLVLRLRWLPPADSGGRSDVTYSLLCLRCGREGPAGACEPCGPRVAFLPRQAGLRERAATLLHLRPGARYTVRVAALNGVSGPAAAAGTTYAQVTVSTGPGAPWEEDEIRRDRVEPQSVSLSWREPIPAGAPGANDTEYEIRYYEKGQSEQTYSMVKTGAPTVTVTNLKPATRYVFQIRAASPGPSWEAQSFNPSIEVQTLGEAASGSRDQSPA", "experiment": "ELISA screen of phage display clones after panning on the recombinant protein", "from_the_text": "(§1) A human B cell-derived scFv phage display library (Creative BioLabs, USA) was used to pan against the recombinant human EphA10 extracellular domain protein (Glu34-Ala565), transcript variant 3, fused with DDK/His tag at C-terminal (Creative Biomart, USA, Catalog no. EPHA10-369H). Positive clones were screened using ELISA. A unique CMU #5 were identified by DNA sequencing. The binding specificity of the unique clones was confirmed by FACS using full-length human EphA 10-expressing NIH 3T3 cells."}, "[2]": {"molecular_target": "T2, full-length human EphA10 expressed on NIH 3T3 cells (human, UniProt Q5JZY3 34-1008)", "T2 construct": "whole, on cells; also called full-length human EphA 10-expressing NIH 3T3 cells", "T2 sequence (looked up)": "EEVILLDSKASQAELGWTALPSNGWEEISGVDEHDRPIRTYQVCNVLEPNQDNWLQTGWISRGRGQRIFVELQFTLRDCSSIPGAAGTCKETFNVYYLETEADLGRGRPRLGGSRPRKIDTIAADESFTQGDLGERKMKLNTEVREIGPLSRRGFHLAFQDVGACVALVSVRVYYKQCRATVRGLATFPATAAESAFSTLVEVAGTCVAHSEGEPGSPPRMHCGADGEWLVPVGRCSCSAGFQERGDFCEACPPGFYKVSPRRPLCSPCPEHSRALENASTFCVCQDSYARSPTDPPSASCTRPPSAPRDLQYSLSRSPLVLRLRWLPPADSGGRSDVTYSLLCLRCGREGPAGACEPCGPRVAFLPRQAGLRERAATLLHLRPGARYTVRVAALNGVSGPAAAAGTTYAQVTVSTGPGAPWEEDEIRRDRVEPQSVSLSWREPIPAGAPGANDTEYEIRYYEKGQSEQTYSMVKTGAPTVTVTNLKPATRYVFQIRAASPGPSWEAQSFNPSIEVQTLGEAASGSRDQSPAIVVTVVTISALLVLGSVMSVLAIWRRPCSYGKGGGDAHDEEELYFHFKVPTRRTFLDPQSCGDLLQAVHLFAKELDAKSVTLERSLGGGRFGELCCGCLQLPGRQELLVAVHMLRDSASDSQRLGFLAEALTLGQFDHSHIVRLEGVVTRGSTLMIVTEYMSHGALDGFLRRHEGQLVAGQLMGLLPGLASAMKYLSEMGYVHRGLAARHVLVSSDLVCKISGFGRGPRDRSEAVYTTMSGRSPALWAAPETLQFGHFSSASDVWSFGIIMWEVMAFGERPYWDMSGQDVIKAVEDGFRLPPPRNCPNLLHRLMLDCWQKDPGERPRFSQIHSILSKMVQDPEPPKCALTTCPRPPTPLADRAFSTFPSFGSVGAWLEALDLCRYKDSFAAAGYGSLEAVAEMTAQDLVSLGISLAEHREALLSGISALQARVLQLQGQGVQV", "experiment": "FACS on transfected NIH 3T3 cells", "from_the_text": "as §1"}},
  "data": [
    {"binder": "CMU #5 scFv (clone from the human B cell-derived scFv phage display library) (scFv, This is the clone as screened after panning) scFv: EVQLVQSGGGVVQPGGSLRLSCAASGFTFDDYAMHWVRQAPGKGLEWVAVISYDGSNKYYADSVKGRFTISRDNSKNTLYLQMNSLRAEDTAVYYCARDGLPAFDIWGKGTLVTVSSGGGGSGGGGSGGGGSEIVLTQSPATLSVSPGERAILSCRASQSVRSNLAWYQQKPGQPPRLVIYDASSRATGIPARFSGSGSGTDFTLTISSLEPEDFAAYYCQQYGSSQLTFGGGTKLEIKR", "values": [
      {"measurement": "binding result", "setting": "[1]", "value": "binds"},
      {"measurement": "binding result", "setting": "[2]", "value": "binds"}
    ]}
  ]
}
